Data from paper PMC5666746.

Molecular target: recombinant extra-cellular domain sequence of DR5 (sDR5) protein (human)
Assay: BLI; ForteBio Octet QKe; biotinylated sDR5 loaded on streptavidin sensors at 1 μM; scFv at two-fold serial dilutions 93.75-6000 nM in SD Buffer (PBS, pH 7.4, 0.02% Tween 20, 0.1% BSA); association 5 min, dissociation 10 min

Sequence of recombinant extra-cellular domain sequence of DR5 (sDR5) protein (human) (O14763 whole entry, the tested form may be a part): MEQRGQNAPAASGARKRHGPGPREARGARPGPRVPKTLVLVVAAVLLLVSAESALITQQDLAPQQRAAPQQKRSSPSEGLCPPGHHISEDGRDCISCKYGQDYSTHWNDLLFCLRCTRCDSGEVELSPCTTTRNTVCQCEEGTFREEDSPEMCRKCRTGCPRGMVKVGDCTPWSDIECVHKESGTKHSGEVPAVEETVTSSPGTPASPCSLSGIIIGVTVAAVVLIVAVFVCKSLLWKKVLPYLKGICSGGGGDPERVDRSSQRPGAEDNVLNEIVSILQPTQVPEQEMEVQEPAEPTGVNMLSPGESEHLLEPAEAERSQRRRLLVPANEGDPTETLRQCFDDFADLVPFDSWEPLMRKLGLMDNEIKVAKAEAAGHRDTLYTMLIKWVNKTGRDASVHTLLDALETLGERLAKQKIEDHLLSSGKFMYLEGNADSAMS

B1: TR2-3, fully human agonistic anti-DR5 single chain fragment variable (scFv) antibody (scFv)
scFv: QVQLQESGPGLVKPSGTLSLTCAVSGGSISSSNWWSWVRQPPGKGLEWIGEIYHSGSTNYNPSLKSRVTISVDKSKNQFSLKLSSVTAADTAVYYCARGAAAGTANDAFDIWGQGTMVTVSSGGGGSGGGGSGGGGSETTLTQSPGILSLSPGERASLSCRASQSVPHNYLAWYQQKPGQAPRLLIYGASNRATGIPDRFSGSGSETDFTLTVTRLAPEDFAVYYCQQYGRSLTFGGGTKVEIKR
- Kd: 126 nM
- koff: 0.00144 s⁻¹
- kon: 11500 M⁻¹ s⁻¹
